# Results taken from paper PMC7841792.
# B1: lactate oxidase (LOX, EC 1.1.3.2) (Aerococcus viridans ATCC 11563 = CCUG 4311) (protein)
# chain: MNNNDIEYNAPSEIKYIDVVNTYDLEEEASKVVPHGGFNYIAGASGDEWTKRANDRAWKHKLLYPRLAQDVEAPDTSTEILGHKIKAPFIMAPIAAHGLAHTTKEAGTARAVSEFGTIMSISAYSGATFEEISEGLNGGPRWFQIYMAKDDQQNRDILDEAKSDGATAIILTADSTVSGNRDRDVKNKFVYPFGMPIVQRYLRGTAEGMSLNNIYGASKQKISPRDIEEIAGHSGLPVFVKGIQHPEDADMAIKRGASGIWVSNHGARQLYEAPGSFDTLPAIAERVNKRVPIVFDSGVRRGEHVAKALASGADVVALGRPVLFGLALGGWQGAYSVLDYFQKDLTRVMQLTGSQNVEDLKGLDLFDNPYGYEY
# Substrate: C[C@H](O)C(=O)O
# Experiment: purified protein
# Conditions: 20 mM HEPES pH 7.4, 50 μM Ampliflu Red, 0.1 U/mL HRP, mean ± SEM, n = 3, lactate enantiomer not given
protein,measurement,value
B1,Km,1620 ± 480 µM
same,Vmax,22 µmol/min/mg
